Test results reported in the nanobody polyreactivity screen of Harvey et al. (2022).

Assay: yeast display, Sf9 membrane polyspecificity reagent, FACS + sequencing; frameworks hold sequencing errors
Method in brief: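 In a synthetic yeast display library (Saccharomyces cerevisiae BJ5465), nanobody expression was induced with galactose for 36–48 hours. FACS gates were set low and high (top ~1%) using anti-HA fluorescence for expression and streptavidin fluorescence for binding of the Sf9 membrane reagent. Each polyreactivity label is drawn from the gate of origin.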

Sequence | polyreactivity (PSR sort gate)
QVQLVESGGGLVQAGGSLRLSCAASGRTFRINTMGWYRQAPGKERELVATITGSGGSTYYADSVKGRFTISRDNANNTVYLQMNSLKPEDTAVYYCAAFGDQNEYDYWGQGTQVTVSS | low polyreactivity
QVQLVESGGGLVQAGGSLRLSCAASGRTFRKNAMGWYRQAPGKERELVAAISDTGGSTYYADSVKGRFTISRDNAKNTVYFQMNSLKTEDTAVYYCAATVRYRGFYYWGQGTQVTVSS | high polyreactivity
QVQLVESGGGLVQAGGSLRLSCAASGRTFRKYAMGWYRQAPGKERELVAAINKSGGTTYYADSVKGRFTISRDNAKNTVYLQMNSLNPEDTAVYYCAADFYYYSYHSGQAPYDYWGQGTQVTVSS | high polyreactivity
QVQLVESGGGLVQAGGSLRLSCAASGRTFRKYAMGWYRQAPGKERELVAAITTSGARTYYADSVKGRFTISRDNAKNTVYLQMNSLKPEDTAVYYCNAVIPYYGIEFDYWGQGTQVTVSS | high polyreactivity
QVQLVESGGGLVQAGGSLRLSCAASGRTFRLYAMGWYIQAPGKERELVAAISSTGSTYYADSVKGRFTISLDNAKNTVYLQMNSLKPEDTAVYYCNAKLPVTSLKFDYYYWGQGSQVTVSS | high polyreactivity
QVQLVESGGGLVQAGGSLRLSCAASGRTFRLYAMGWYRQAPGKERELVAAIDGNGGSTYYADSVKGRFTISRDNAKNTVYLQMNSLKPEDTAVYYCAVSVSVYLDYRRDHQRGYDYWGQGTQVTVSS | low polyreactivity
QVQLVESGGGLVQAGGSLRLSCAASGRTFRLYAMGWYRQAPGKERELVAAISWRGGSTYYADSVKGRFTISRDNAKNTVYLQMNSLKPEDTAVYYCAAGTSRHLSNGYYYWGQGTQVTVSS | high polyreactivity
QVQLVESGGGLVQAGGSLRLSCAASGRTFRLYAMGWYRQAPGKERELVAAITRGGRTNYADSVKGRFTISRDNAKNTVYLQMNSLKPEDTAVYYCATDLVGAGVKGVRFVGRYRGDYWGQGTQVTVSS | low polyreactivity
QVQLVESGGGLVQAGGSLRLSCAASGRTFRLYAMGWYRQAPGKERQLVAAIDGNGGSTYYADSVKGRFTISRDNAKNTVYLQMNSLKPEDTAVYYCAVSVSVYLDYRRDHQRGYDYWGQGTQVTVSS | low polyreactivity
QVQLVESGGGLVQAGGSLRLSCAASGRTFRNNAMGWYRQAPGKEREFVAVISNTGGSTYYADSVKGRFTISRDNAKNTVYLQMNSLKPEDTAVYYCAVRPRYSQYYYWGQGTQVTVSS | high polyreactivity
QVQLVESGGGLVQAGGSLRLSCAASGRTFRNNAMGWYRQAPGKERELVAAISSRGGSTYYADSVKGRFTISRDNAKNTVYLQMNSLKPEDTAVYYCADDHSRYGDYWGQGTQVTVSS | high polyreactivity
QVQLVESGGGLVQAGGSLRLSCAASGRTFRNYAMGWYRQAPAKERELVAAITWSGGSTYYADSVKGRFTISRDNSKNTVYLQMYSLKPEDTAVYYCNVRSYTRTYNYWGQGTQVTVSS | high polyreactivity
QVQLVESGGGLVQAGGSLRLSCAASGRTFRNYAMGWYRQAPGKERELVAGITYSGGSTFYADSVKGRFTISRDNAKNTVYLQMNSLKPEDAAVYYCAAVYVPYYWLGRSRGLDYWGQGTQVTVSS | high polyreactivity
QVQLVESGGGLVQAGGSLRLSCAASGRTFRPNAMGWYRQAPGKERELVAAISRRGGSTNYADSVKGRFTISRDNAKNTVYLQMNSLKPEDTAVYYCNSRGRRGYDYWGQGTQVTVSS | high polyreactivity
QVQLVESGGGLVQAGGSLRLSCAASGRTFRRNAMGWYRQAPGKERELVASINRGGGTNYADSVKGRFTISRDNAKNTVYLQMNSLKPEDTAVYYCAAGPGTYWGYDYWGQGTQVTVSS | low polyreactivity
QVQLVESGGGLVQAGGSLRLSCAASGRTFRRNAMGWYRQAPGQERELVAGIRKRGGSTYYADSVKGRFTISRDNAKNTVYLQMNSLKPQDTAVYYCAAQPALTYRFYYWGQGTQVTVSS | high polyreactivity
QVQLVESGGGLVQAGGSLRLSCAASGRTFRRYAMGWYRQAPGKERELVAAISGDGSTHYADSVKGRFTISRDNAKNTVYLQMNSLKPEDTAVYYCAADYTDWYYVNYPAAPYRYDYWGQGTQVTVSS | high polyreactivity
QVQLVESGGGLVQAGGSLRLSCAASGRTFRRYAMGWYRQAPGKERELVAAISSSTGRTYYADSVKGRFTISRDTAKNTVYLQMNSLKPEDTAVYYCNAVHRYERDYWGQGTQVTVSS | high polyreactivity
QVQLVESGGGLVQAGGSLRLSCAASGRTFRRYVMGWYRQAPGKERELGAAITGSGGSTYYADSVKGRFTISRDNAKNTVYLQMNSLKPEDTAVYYCAADGICFYRSYGYDYWGQGTQVNVSS | high polyreactivity
QVQLVESGGGLVQAGGSLRLSCAASGRTFRRYVMGWYRQAPGKERELVASITRGTGTDYADSVKGRFTISRDNAKNTVYLQMNSLKPEDTAVYYCNAEVKGFFYDYDYWGQGTQVTVSS | low polyreactivity
QVQLVESGGGLVQAGGSLRLSCAASGRTFRSNAMGWYRQAPGKEREFVAAISGRGGITYYADSVKGRFTISRDNAKNTVYLQMNSLKPEDTAVYYCNADYWQAGDYLYYFVYYGGYDYWGQGTQVTVSS | low polyreactivity

Sequence | polyreactivity (PSR sort gate)
QVQLVESGGGLVQAGGSLRLSCAASGRTFRSNAMGWYRQAPGKERELVAAITASGGNTYYADSVKGRFTISRDNAKNTVYLQMNSLKPEDTAVYYCAAVSRYNYGTNPYYYWGQGTQVNVSS | high polyreactivity
QVQLVESGGGLVQAGGSLRLSCAASGRTFRSNAMGWYRQAPGKERELVATISGRGGSTYYADSVKGRFTISRDNAKNTVYLQMNSLKPEDTAVYYCNAYSVRLSGAELNYWGQGTQVTVSS | high polyreactivity
QVQLVESGGGLVQAGGSLRLSCAASGRTFRSNAMGWYRQAPGKERELVATISRRGVSTYYADSVKGRFTISRDNAKNTVYLLMNSLKPEYTAVYYCTLNVGTTSRWSYDYWGQGNQVTVSS | high polyreactivity
QVQLVESGGGLVQAGGSLRLSCAASGRTFRSYAMGWYRQAPGKERELVAAINTNGGSTYYADSVKGRFTISRDNAKNTVYLQMNSLKPEDTAVYYCRAWAQNQFNYWGQGTQVTVSS | high polyreactivity
QVQLVESGGGLVQAGGSLRLSCAASGRTFRSYAMGWYRQAPGKERELVAAISWTGGSTYYADSVKGRFTISRDNAKNTVYLQMNSLKPEDTAVYYCAVRYRGYGYDWGQGTQVTVSS | high polyreactivity
QVQLVESGGGLVQAGGSLRLSCAASGRTFRTNAMGWYRQAPGKEPELVAAISRGGGSTYYADSVKGRFTISRDNAKNTVYLQMNSLKPEDTAVYDCNALRNGIAFGAMDYWGQGTQVNVSS | high polyreactivity
QVQLVESGGGLVQAGGSLRLSCAASGRTFRTYAMGWYRQAPGKERELVAVITVNSASTYYADSVKGRFTISRDYAKNTVYLQMKSLKPEDTAVYYCADYFIYGYWGQGTQVTVSS | low polyreactivity
QVQLVESGGGLVQAGGSLRLSCAASGRTFRTYTMGWYRQAPGKEREFVAAITSSGASTYYADSVKGRFTISRDNAKNTVYLQKNSLKPEDTAFYYCAARYGRRLVWVPALLYDYWGQGTQVTVSS | high polyreactivity
QVQLVESGGGLVQAGGSLRLSCAASGRTFRTYTMGWYRQAPGKERELVAAITSTGSTYYADSVKGRFTISRDNAKNTVYLQMNSLKPEDTAVYYCAAVYVAVGLVYEKYDYWGQGTQVTVSS | high polyreactivity
QVQLVESGGGLVQAGGSLRLSCAASGRTFRVYAMGWYRQAPGKEREFVAAISYSGGRTYYADSVKGRFTISRDNAKNTVYLQMNSLKPEDTAVYYCAAKTNRGSYSYDYWGQGTQVTVSS | high polyreactivity
QVQLVESGGGLVQAGGSLRLSCAASGRTFRVYAMGWYRQAPGKERELVAAISWSDGSTYYADSVKGRFTISRDYAKNTVYLQMNSLKPEDTAVYYCNARVRVPVTLHDYWGQCTQVTVSS | high polyreactivity
QVQLVESGGGLVQAGGSLRLSCAASGRTFRWYAMGWYRKAPGKEWELVAAISYRGGSTYADSVKGRFTISRDNEKNTVNLQMNSLKPEDTAVYYCAAKYYDYGPYYYWGQGTQETVSS | high polyreactivity
QVQLVESGGGLVQAGGSLRLSCAASGRTFRWYAMGWYRQAPGKERELVASITWSGGSTYYADSVKGRFTISRDNAKNSVYLQMNSLKPEDTAVYYCNRVLGVSLYEGNYWGQGTQVTVSS | high polyreactivity
QVQLVESGGGLVQAGGSLRLSCAASGRTFRYAMGWYRQSPGKERELVAGITTRGTSTYYADSVKGRFTISRDNAKNTVYLQMNSLKPEDTAVYYCNARPARAVYIHTPTYRYDYWGQGTQVTVSS | high polyreactivity
QVQLVESGGGLVQAGGSLRLSCAASGRTFRYNAMGWYRQAPGKERELVAAINWNGGSTYYADSVKGRFTISRDNAKNTVYLQMNSLKPEDTAVYYCNADFYHRYDWGQGTQVTVSS | high polyreactivity
QVQLVESGGGLVQAGGSLRLSCAASGRTFRYNAMGWYRQAPGKERELVAAISRSGGRTYYADSVKGRFTISRDNAKNTVYLQMNSLKPEDTAVYYCNAAPSWSTSFDSWGQGTQVTVSS | high polyreactivity
QVQLVESGGGLVQAGGSLRLSCAASGRTFRYNAMGWYRQATGKVRELVAAISGRGSSTYYADSVKGRFTISRDNAKNTVYLQMNSLKPDDTAVYYCAALPASVRRPGWHDYWGQGTQVTVSS | high polyreactivity
QVQLVESGGGLVQAGGSLRLSCAASGRTFRYNPMVWYRQAPGKERELVAAITWSGGSTYYADSVKGRFKISRDNAKNTVYLQMNSLKPEDTAVYYCNRRYYAYDWGQGTQVTVSS | high polyreactivity
QVQLVESGGGLVQAGGSLRLSCAASGRTFRYNVMGWYRQAPGKERELVAAIRKRSGSTYYADSVKGRFTISRDNAKNTVYLQMISLKPEDTAVYYCNTEYHYGTASASDYWGQGTQVTVSS | high polyreactivity
QVQLVESGGGLVQAGGSLRLSCAASGRTFRYYAIGWYRQAPGKERELVATISKSGGSTYYADSVKGRFTISRDNAKNTVYLQMNSLKPEDTAVYYCAAVGPYRWYDYWGQGTQVTVSS | high polyreactivity
